Experimental data published in PMC11510292, “Heterobivalent Dual-Target Peptide for Integrin-αvβ3 and Neuropeptide Y Receptors on Breast Tumor” (Pharmaceuticals, 2024).
Like-named read-outs stand apart in the source and are kept apart here.

Key:
[1] = Biodistribution in SCID mice bearing MDA-MB-231 xenografts; format: in vivo; details: female, mouse, total radioactivity; for tissue uptake at 1 h / tissue uptake per volume at 1 h: SCID, MDA-MB231 model, 60 min p.i., 0.1 mL/18.5 MBq IV; for tissue uptake per volume at 1 h: whole blood
Method: To evaluate the uptake of the radiolabeled peptide by breast tumors, additional biodistribution studies were performed in SCID mice bearing MCF-7 and MDA-MB-231 xenografts (Table 2). […] The tumor uptakes of the radiolabeled conjugate were 9.30 ± 3.25% for MCF-7 and 4.93 ± 1.01% for MDA-MB-231 (Figure 5). The tumor-to-muscle ratios were 5.65 ± 0.94 for the MCF-7 model and 7.78 ± 3.20 for the MDA-MB-231 model (Figure 6).
The animals used in this experiment were provided by the Nuclear and Energy Research Institute (IPEN/CNEN-SP) vivarium. Every effort was made to minimize animal suffering per International Ethical Guidelines. The experimental protocols used in this study were approved by the Scientific Ethics Committee of the IPEN/CNEN-SP. Adult female SCID mice were maintained under controlled environmental conditions (12 h light-dark cycle; constant temperature 21 ± 2 °C), with free access to water and food. Suspensions of cells (5 × 10^6 in 0.1 mL) were subcutaneously injected into the upper back regions of the mice.
(§1) […] Animals were deeply anesthetized and euthanized at the corresponding biodistribution time point. Blood, brain, spleen, heart, stomach, liver, lungs, kidneys, pancreas, muscle, bone, small intestine, and large intestine were collected and weighed. The radioactivity of each organ/tissue was then determined using the above-mentioned automatic gamma counter. The radioactivity was evaluated as the percentage of injected activity per gram of organ/tissue (%IA/g), using the same injected dose activity as a standard. Receptor-blocking studies in tumor models were also carried out by co-administration of 100 μg of cold-conjugated peptide along with radiopeptide.

[2] = Ex vivo biodistribution and blood clearance in healthy Balb/c mice; details: for tissue uptake at 5 min / tissue uptake at 0.5 h / tissue uptake at 1 h / tissue uptake at 2 h / tissue uptake at 4 h / tissue uptake at 6 h: mouse, 37 MBq, total radioactivity; for tissue uptake at 5 min: 5 min after IV injection; for tissue uptake at 0.5 h: 30 min after IV injection; for tissue uptake at 1 h: 1 h after IV injection; for tissue uptake at 2 h: 2 h after IV injection; for tissue uptake at 4 h: 4 h after IV injection; for tissue uptake at 6 h: 6 h after IV injection
Method: The ex vivo biodistribution analysis performed with healthy Balb/c mice is presented in Figure 2 and Figure 3, and Table 1. Values are expressed as a percentage of injected activity per gram (%IA/g) of tissue and per milliliter (%IA/mL) of blood.
as §1

[3] = bone, mean ± SD n = 5, read-out: Bone uptake
[4] = brain, mean ± SD n = 5, read-out: Brain uptake
[5] = heart, mean ± SD n = 5, read-out: Heart uptake
[6] = lung, mean ± SD n = 5, read-out: Lung uptake

CCCC[C@H](NC(=O)[C@H](CCCNC(=N)N)NC(=O)[C@H](Cc1c[nH]c2ccccc12)NC(=O)[C@H](CSCC(=O)NCCCC[C@@H]1NC(=O)[C@@H](Cc2ccccc2)NC(=O)[C@H](CC(=O)O)NC(=O)CNC(=O)[C@H](CCCNC(=N)N)NC1=O)NC(=O)[C@@H]1CCCN1C(=O)[C@H](CC(N)=O)NC(=O)[C@@H](NC(=O)COCCOCCNC(=O)c1ccc(NN)nc1)[C@@H](C)CC)C(=O)N[C@@H](CCCNC(=N)N)C(=O)N[C@@H](Cc1ccc(O)cc1)C(N)=O [[^99mTc]HYNIC-cRGDfk-NPY, metal not drawn]
tissue uptake at 1 h ([1]; bone, Block with excess cold peptide, n = 3, read-out: Bone uptake): 0.53 ± 0.16 %ID/g | tissue uptake at 1 h ([1]; bone, Non-Block, n = 5, read-out: Bone uptake): 1.22 ± 0.28 %ID/g | tissue uptake at 1 h ([1]; brain, Block with excess cold peptide, n = 3, read-out: Brain uptake): 0.09 ± 0.01 %ID/g | tissue uptake at 1 h ([1]; brain, Non-Block, n = 5, read-out: Brain uptake): 0.18 ± 0.04 %ID/g | tissue uptake at 1 h ([1]; heart, Block with excess cold peptide, n = 3, read-out: Heart uptake): 0.74 ± 0.2 %ID/g | tissue uptake at 1 h ([1]; heart, Non-Block, n = 5, read-out: Heart uptake): 1.48 ± 0.29 %ID/g | tissue uptake at 1 h ([1]; kidneys, Block with excess cold peptide, n = 3, read-out: Kidneys uptake): 13 ± 2.68 %ID/g | tissue uptake at 1 h ([1]; kidneys, Non-Block, n = 5, read-out: Kidneys uptake): 19.3 ± 2.89 %ID/g | tissue uptake at 1 h ([1]; large intestine, Block with excess cold peptide, n = 3, read-out: Large Intestine uptake): 2.22 ± 0.98 %ID/g | tissue uptake at 1 h ([1]; large intestine, Non-Block, n = 5, read-out: Large Intestine uptake): 5.18 ± 0.87 %ID/g | tissue uptake at 1 h ([1]; liver, Block with excess cold peptide, n = 3, read-out: Liver uptake): 1.41 ± 0.62 %ID/g | tissue uptake at 1 h ([1]; liver, Non-Block, n = 5, read-out: Liver uptake): 3.75 ± 0.51 %ID/g | tissue uptake at 1 h ([1]; lungs, Block with excess cold peptide, n = 3, read-out: Lungs uptake): 1.95 ± 0.6 %ID/g | tissue uptake at 1 h ([1]; lungs, Non-Block, n = 5, read-out: Lungs uptake): 3.27 ± 0.47 %ID/g | tissue uptake at 1 h ([1]; muscle, Block with excess cold peptide, n = 3, read-out: Muscle uptake): 0.33 ± 0.02 %ID/g | tissue uptake at 1 h ([1]; muscle, Non-Block, n = 5, read-out: Muscle uptake): 0.88 ± 0.13 %ID/g | tissue uptake at 1 h ([1]; pancreas, Block with excess cold peptide, n = 3, read-out: Pancreas uptake): 0.7 ± 0.21 %ID/g | tissue uptake at 1 h ([1]; pancreas, Non-Block, n = 5, read-out: Pancreas uptake): 1.35 ± 0.35 %ID/g | tissue uptake at 1 h ([1]; small intestine, Block with excess cold peptide, n = 3, read-out: Small Intestine uptake): 2.16 ± 0.74 %ID/g | tissue uptake at 1 h ([1]; small intestine, Non-Block, n = 5, read-out: Small Intestine uptake): 8.3 ± 1.36 %ID/g | tissue uptake at 1 h ([1]; spleen, Block with excess cold peptide, n = 3, read-out: Spleen uptake): 1.51 ± 0.22 %ID/g | tissue uptake at 1 h ([1]; spleen, Non-Block, n = 5, read-out: Spleen uptake): 5.02 ± 0.63 %ID/g | tissue uptake at 1 h ([1]; stomach, Block with excess cold peptide, n = 3, read-out: Stomach uptake): 2.05 ± 0.33 %ID/g | tissue uptake at 1 h ([1]; stomach, Non-Block, n = 5, read-out: Stomach uptake): 5.63 ± 0.96 %ID/g | tissue uptake at 1 h ([1]; tumor, Block with excess cold peptide, n = 3, p < 0.05 vs non-block, read-out: Tumor uptake): 2.3 ± 0.41 %ID/g | tissue uptake at 1 h ([1]; tumor, Non-Block, n = 5, read-out: Tumor uptake): 4.93 ± 1.01 %ID/g | tissue uptake per volume at 1 h ([1]; Block with excess cold peptide, n = 3): 1.4 ± 0.21 %ID/mL | tissue uptake per volume at 1 h ([1]; Non-Block, n = 5): 1.8 ± 1.03 %ID/mL | tissue to tissue ratio at 1 h ([1]; tumor and muscle, 37 MBq, MDA-MB-231 tumor-bearing SCID mice, 1 h after IV injection, n = 5): 7.78 ± 3.2 | Blood half-life ([2]; IV, 0.05 mL/18.5 MBq, exponential decay fit of %IA/mL): 23.04 min | decrease in blood activity ([2]; IV, within 1 h): approximately 90% | crossing of blood-brain barrier ([2]; from low brain uptake): did not cross the blood–brain barrier | tissue uptake at 5 min [2, 3]: 3.19 ± 0.76 %ID/g | tissue uptake at 0.5 h [2, 3]: 3.71 ± 1.37 %ID/g | tissue uptake at 1 h [2, 3]: 2.52 ± 1.67 %ID/g | tissue uptake at 2 h [2, 3]: 0.71 ± 0.22 %ID/g | tissue uptake at 4 h [2, 3]: 0.46 ± 0.14 %ID/g | tissue uptake at 6 h [2, 3]: 0.54 ± 0.28 %ID/g | tissue uptake at 5 min [2, 4]: 0.37 ± 0.11 %ID/g | tissue uptake at 0.5 h [2, 4]: 0.22 ± 0.15 %ID/g | tissue uptake at 1 h [2, 4]: 0.12 ± 0.03 %ID/g | tissue uptake at 2 h [2, 4]: 0.07 ± 0.01 %ID/g | tissue uptake at 4 h [2, 4]: 0.04 ± 0.01 %ID/g | tissue uptake at 6 h [2, 4]: 0.04 ± 0.01 %ID/g | tissue uptake at 5 min [2, 5]: 4.3 ± 1.32 %ID/g | tissue uptake at 0.5 h [2, 5]: 3.21 ± 1.22 %ID/g | tissue uptake at 1 h [2, 5]: 1.04 ± 0.23 %ID/g | tissue uptake at 2 h [2, 5]: 0.55 ± 0.07 %ID/g | tissue uptake at 4 h [2, 5]: 0.35 ± 0.12 %ID/g | tissue uptake at 6 h [2, 5]: 0.33 ± 0.09 %ID/g | tissue uptake at 5 min [2, 6]: 9.8 ± 3.16 %ID/g | tissue uptake at 0.5 h [2, 6]: 4.8 ± 2.67 %ID/g | tissue uptake at 1 h [2, 6]: 2.64 ± 0.83 %ID/g | tissue uptake at 2 h [2, 6]: 1.17 ± 0.2 %ID/g
